{
  "source": "patent US20250368745A1",
  "about": "(published 2025)",
  "binders": {"B1": {"name": "SA301a LC-Q90A (antibody, name in Kabat numbering, V domains shown)", "VH": "QVQLQESGPGLVKPSQTLSLTCTVSGYSITSDYNSHWIRQPPGKGLEWIGYIHYSGSTNYNPSLKSRVTISRDTSKNQFSLKLSSVTAADTAVYYCARNYGSIYVNYFDYWGQGTLVTVSS", "VL": "EIVLTQSPATLSLSPGERATLSCSASSSVSYMYWYQQKPGQAPRPLIYRTSNLASGIPARFSGSGSGTDFTLTISSLEPEDFAVYYCQAYHSYPTFGGGTKVEIK", "notes": "IgG1 kappa"}, "B2": {"name": "SA301a LC-H92V (antibody, V domains shown)", "VH": "B1 VH", "VL": "B1 VL with A89Q, H91V"}, "B3": {"name": "SA301a LC-H92T (antibody, V domains shown)", "VH": "B1 VH", "VL": "B1 VL with A89Q, H91T"}, "B4": {"name": "SA301a LC-Q89F (antibody, V domains shown)", "VH": "B1 VH", "VL": "B1 VL with Q88F, A89Q"}, "B5": {"name": "SA301a LC-H92E (antibody, V domains shown)", "VH": "B1 VH", "VL": "B1 VL with A89Q, H91E"}, "B6": {"name": "SA301a LC-Q89L (antibody, V domains shown)", "VH": "B1 VH", "VL": "B1 VL with Q88L, A89Q"}, "B7": {"name": "SA301a LC-Q89M (antibody, V domains shown)", "VH": "B1 VH", "VL": "B1 VL with Q88M, A89Q"}, "B8": {"name": "SA301a LC-Q89N (antibody, V domains shown)", "VH": "B1 VH", "VL": "B1 VL with Q88N, A89Q"}, "B9": {"name": "SA301a LC-H92A (antibody, V domains shown)", "VH": "B1 VH", "VL": "B1 VL with A89Q, H91A"}, "B10": {"name": "SA301a LC-Q89G (antibody, V domains shown)", "VH": "B1 VH", "VL": "B1 VL with Q88G, A89Q"}, "B11": {"name": "SA301a LC-Q89D (antibody, V domains shown)", "VH": "B1 VH", "VL": "B1 VL with Q88D, A89Q"}, "B12": {"name": "SA301a LC-H92Y (antibody, V domains shown)", "VH": "B1 VH", "VL": "B1 VL with A89Q, H91Y"}, "B13": {"name": "SA301a LC-Q89Y (antibody, V domains shown)", "VH": "B1 VH", "VL": "B1 VL with Q88Y, A89Q"}, "B14": {"name": "SA301a LC-Q89E (antibody, V domains shown)", "VH": "B1 VH", "VL": "B1 VL with Q88E, A89Q"}, "B15": {"name": "SA301a LC-H92F (antibody, V domains shown)", "VH": "B1 VH", "VL": "B1 VL with A89Q, H91F"}, "B16": {"name": "SA301a LC-Q89K (antibody, V domains shown)", "VH": "B1 VH", "VL": "B1 VL with Q88K, A89Q"}, "B17": {"name": "SA301a LC-Q89S (antibody, V domains shown)", "VH": "B1 VH", "VL": "B1 VL with Q88S, A89Q"}, "B18": {"name": "SA301a LC-Q89V (antibody, V domains shown)", "VH": "B1 VH", "VL": "B1 VL with Q88V, A89Q"}, "B19": {"name": "SA301a LC-Q89A (antibody, V domains shown)", "VH": "B1 VH", "VL": "B1 VL with Q88A, A89Q"}, "B20": {"name": "SA301a LC-Q90R (antibody, name in Kabat numbering, V domains shown)", "VH": "B1 VH", "VL": "B1 VL with A89R", "notes": "IgG1 kappa"}, "B21": {"name": "SA301a LC-Y91R (antibody, name in Kabat numbering, V domains shown)", "VH": "B1 VH", "VL": "B1 VL with A89Q, Y90R", "notes": "IgG1 kappa"}, "B22": {"name": "SA301a LC-Q90D (antibody, name in Kabat numbering, V domains shown)", "VH": "B1 VH", "VL": "B1 VL with A89D", "notes": "IgG1 kappa"}, "B23": {"name": "SA301a LC-Y91G (antibody, name in Kabat numbering, V domains shown)", "VH": "B1 VH", "VL": "B1 VL with A89Q, Y90G", "notes": "IgG1 kappa"}, "B24": {"name": "SA301a LC-Y91I (antibody, name in Kabat numbering, V domains shown)", "VH": "B1 VH", "VL": "B1 VL with A89Q, Y90I", "notes": "IgG1 kappa"}, "B25": {"name": "SA301a LC-Y91Q (antibody, name in Kabat numbering, V domains shown)", "VH": "B1 VH", "VL": "B1 VL with A89Q, Y90Q", "notes": "IgG1 kappa"}, "B26": {"name": "SA301a LC-Q90K (antibody, name in Kabat numbering, V domains shown)", "VH": "B1 VH", "VL": "B1 VL with A89K", "notes": "IgG1 kappa"}, "B27": {"name": "SA301a LC-Y91P (antibody, name in Kabat numbering, V domains shown)", "VH": "B1 VH", "VL": "B1 VL with A89Q, Y90P", "notes": "IgG1 kappa"}, "B28": {"name": "SA301a LC-Q90P (antibody, name in Kabat numbering, V domains shown)", "VH": "B1 VH", "VL": "B1 VL with A89P", "notes": "IgG1 kappa"}, "B29": {"name": "SA301a LC-Q90V (antibody, name in Kabat numbering, V domains shown)", "VH": "B1 VH", "VL": "B1 VL with A89V", "notes": "IgG1 kappa"}, "B30": {"name": "SA301a LC-Y91A (antibody, name in Kabat numbering, V domains shown)", "VH": "B1 VH", "VL": "B1 VL with A89Q, Y90A", "notes": "IgG1 kappa"}, "B31": {"name": "SA301a LC-Q90S (antibody, name in Kabat numbering, V domains shown)", "VH": "B1 VH", "VL": "B1 VL with A89S", "notes": "IgG1 kappa"}, "B32": {"name": "SA301a LC-Y91T (antibody, name in Kabat numbering, V domains shown)", "VH": "B1 VH", "VL": "B1 VL with A89Q, Y90T", "notes": "IgG1 kappa"}, "B33": {"name": "SA301a LC-Q90L (antibody, name in Kabat numbering, V domains shown)", "VH": "B1 VH", "VL": "B1 VL with A89L", "notes": "IgG1 kappa"}, "B34": {"name": "SA301a LC-Y91F (antibody, name in Kabat numbering, V domains shown)", "VH": "B1 VH", "VL": "B1 VL with A89Q, Y90F", "notes": "IgG1 kappa"}, "B35": {"name": "SA301a LC-Q90G (antibody, name in Kabat numbering, V domains shown)", "VH": "B1 VH", "VL": "B1 VL with A89G", "notes": "IgG1 kappa"}, "B36": {"name": "SA301a LC-Q90H (antibody, name in Kabat numbering, V domains shown)", "VH": "B1 VH", "VL": "B1 VL with A89H", "notes": "IgG1 kappa"}, "B37": {"name": "SA301a LC-Y91V (antibody, name in Kabat numbering, V domains shown)", "VH": "B1 VH", "VL": "B1 VL with A89Q, Y90V", "notes": "IgG1 kappa"}, "B38": {"name": "SA301a LC-Y91M (antibody, name in Kabat numbering, V domains shown)", "VH": "B1 VH", "VL": "B1 VL with A89Q, Y90M", "notes": "IgG1 kappa"}, "B39": {"name": "SA301a LC-Q90T (antibody, name in Kabat numbering, V domains shown)", "VH": "B1 VH", "VL": "B1 VL with A89T", "notes": "IgG1 kappa"}, "B40": {"name": "SA301a LC-Y91K (antibody, name in Kabat numbering, V domains shown)", "VH": "B1 VH", "VL": "B1 VL with A89Q, Y90K", "notes": "IgG1 kappa"}, "B41": {"name": "SA301a LC-Q90F (antibody, name in Kabat numbering, V domains shown)", "VH": "B1 VH", "VL": "B1 VL with A89F", "notes": "IgG1 kappa"}, "B42": {"name": "SA301a LC-Q90I (antibody, name in Kabat numbering, V domains shown)", "VH": "B1 VH", "VL": "B1 VL with A89I", "notes": "IgG1 kappa"}, "B43": {"name": "SA301a LC-Q90Y (antibody, name in Kabat numbering, V domains shown)", "VH": "B1 VH", "VL": "B1 VL with A89Y", "notes": "IgG1 kappa"}, "B44": {"name": "SA301a LC-Q90M (antibody, name in Kabat numbering, V domains shown)", "VH": "B1 VH", "VL": "B1 VL with A89M", "notes": "IgG1 kappa"}, "B45": {"name": "SA301a LC-Y91E (antibody, name in Kabat numbering, V domains shown)", "VH": "B1 VH", "VL": "B1 VL with A89Q, Y90E", "notes": "IgG1 kappa"}, "B46": {"name": "SA301a LC-Y91S (antibody, name in Kabat numbering, V domains shown)", "VH": "B1 VH", "VL": "B1 VL with A89Q, Y90S", "notes": "IgG1 kappa"}, "B47": {"name": "SA301a LC-Q90E (antibody, name in Kabat numbering, V domains shown)", "VH": "B1 VH", "VL": "B1 VL with A89E", "notes": "IgG1 kappa"}},
  "note": "Changes are numbered by the printed parent chain. Numbers in names are those of the source.",
  "data": [
    {"molecular_target": "T1, human IL-18BP (human, UniProt O95998 31-194)", "T1 construct": "UniProt printed as 095998; also called hIL-18BP", "T1 sequence": "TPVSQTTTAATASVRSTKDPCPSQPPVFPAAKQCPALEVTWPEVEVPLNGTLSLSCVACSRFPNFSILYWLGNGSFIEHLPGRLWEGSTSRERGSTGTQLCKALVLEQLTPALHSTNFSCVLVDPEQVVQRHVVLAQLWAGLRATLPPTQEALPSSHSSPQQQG", "test": "BLI, apparent KD", "units": {"Kd": "nM"}, "values": [
      {"binder": "B1", "Kd": 1.07},
      {"binder": "B2", "Kd": 0.2},
      {"binder": "B3", "Kd": 0.15},
      {"binder": "B4", "Kd": 0.4},
      {"binder": "B5", "Kd": 0.36},
      {"binder": "B6", "Kd": 0.85},
      {"binder": "B7", "Kd": 0.49},
      {"binder": "B8", "Kd": 0.28},
      {"binder": "B9", "Kd": 0.95},
      {"binder": "B10", "Kd": 0.32},
      {"binder": "B11", "Kd": 0.02},
      {"binder": "B12", "Kd": 0.1},
      {"binder": "B13", "Kd": 0.35},
      {"binder": "B14", "Kd": 0.46},
      {"binder": "B15", "Kd": 0.7},
      {"binder": "B16", "Kd": 0.97},
      {"binder": "B17", "Kd": 0.28},
      {"binder": "B18", "Kd": 0.51},
      {"binder": "B19", "Kd": 0.39},
      {"binder": "B20", "Kd": 0.51},
      {"binder": "B21", "Kd": 0.18},
      {"binder": "B22", "Kd": 0.31},
      {"binder": "B23", "Kd": 0.23},
      {"binder": "B24", "Kd": 0.42},
      {"binder": "B25", "Kd": 0.24},
      {"binder": "B26", "Kd": 0.1},
      {"binder": "B27", "Kd": 0.24},
      {"binder": "B28", "Kd": 0.09},
      {"binder": "B29", "Kd": 0.29},
      {"binder": "B30", "Kd": 1.08},
      {"binder": "B31", "Kd": 0.41},
      {"binder": "B32", "Kd": 0.45},
      {"binder": "B33", "Kd": 0.13},
      {"binder": "B34", "Kd": 0.26},
      {"binder": "B35", "Kd": 0.78},
      {"binder": "B36", "Kd": 0.25},
      {"binder": "B37", "Kd": 1.85},
      {"binder": "B38", "Kd": 0.22},
      {"binder": "B39", "Kd": 0.4},
      {"binder": "B40", "Kd": 1.13},
      {"binder": "B41", "Kd": 0.65},
      {"binder": "B42", "Kd": 0.24},
      {"binder": "B43", "Kd": 1.04},
      {"binder": "B44", "Kd": 0.27},
      {"binder": "B45", "Kd": 0.31},
      {"binder": "B46", "Kd": 0.33},
      {"binder": "B47", "Kd": 0.18}
    ]}
  ]
}
